Test results taken from patent US20250026813A1 (published 2025).
Numbering of substitutions follows the chain as printed.

B1: IMPI-006 (antibody, V domains shown)
VH: QLQLQESGPGLVKPSETLSLTCTVSGGSISNSNYYWGWIRQPPGKGLEWIGSIYYSGRTYYNPSLKSRVTISVDTSKNQFSLKLSSVTAADTAVYYCARMGLLWFGEFYGMDVWGQGTTVTVSS
VL: DIQMTQSPSSLSASVGDRVTITCRASQGISSWLAWYQQKPEKAPKSLIYDASSLQRGVPSRFSGSGSGTDFTLTISSLQPEDFASYYCQQYNSYPLTFGGGTRVEIK
B2: IMPI-037 (antibody, V domains shown)
VH: not shown
VL: DIQLTQSPSFLSASVGDRVTITCWASQGINSYLAWYQQKPGKAPKLLIYAASTLQSGVPSRFSGSGSGTEFTLTISSLQPEDFTTYYCQQFNDYPRTFGPGTKVEIK
B3: IMPI-005 (antibody, V domains shown)
VH: EVQLVESGGGLIQPGGSLRLSCAASGFTVSSNYMNWVRQAPGKGLEWVSVIYSGGSTYYADSVKGRFTISRDNSKNTLFLQMNSLRAEDSAVYYCARDLGPYGVDVWGQGTTVTVSS
VL: B2 VL with N30S, T84A, Q90E, F91L, D93S, R96L, P100Q, K103R, V104L
B4: IMPI-037 (antibody, V domains shown)
VH: not shown
VL: B2 VL
B5: IMPI-017 (antibody, V domains shown)
VH: B3 VH with S25A, F27L, A40V, F79Y, S90T, P101T, Y102L, V104M
VL: B2 VL with N30S, S31T, T84A, F91L, D93S, P95L, R96P, P100Q
B6: IMPI-056 (antibody, V domains shown)
VH: B3 VH with F27L, G44K, Y58F, K64R
VL: B2 VL with N30S, T84A, F91L, D93S, R96L, P100Q, K103R, V104L
B7: IMPI-060 (antibody, V domains shown)
VH: B3 VH with F27V, N35S, Y58F, F79Y, S90T, G100S, P101Y, V104M
VL: B2 VL with N30S, R61K, T84A, F91L, D93S, R96S, T97S, P100Q, V104L
B8: IMPI-029 (antibody, V domains shown)
VH: B3 VH with F27V
VL: B2 VL with N30S, T84A, Q90E, F91L, D93S, R96L, P100Q, K103R, V104L
B9: IMPI-052 (antibody, V domains shown)
VH: B3 VH with F27V, W47G, S56T, F79Y, S90T, L99T, G100V, P101V, V104M
VL: B2 VL with N30S, A50T, T84A, F91L, D93S, R96L, P100G
B10: IMPI-029 (antibody, V domains shown)
VH: B3 VH with F27V
VL: B2 VL with N30S, T84A, Q90E, F91L, D93S, R96L, P100Q, K103R, V104L
B11: IMPI-056 (antibody, V domains shown)
VH: B3 VH with F27L, G44K, Y58F, K64R
VL: B2 VL with N30S, T84A, F91L, D93S, R96L, P100Q, K103R, V104L
B12: IMPI-021 (antibody, V domains shown)
VH: B3 VH with F27V, N35S, Y58F, F79Y, S90T, G100S, P101Y, V104M
VL: B2 VL with N30S, R61K, T84A, F91L, D93S, R96C, T97S, P100Q, V104L
B13: IMPI-047 (antibody, V domains shown)
VH: B3 VH with F79Y, A87T, S90T, G100V, P101A, V104M
VL: B2 VL with N30S, L46V, T84A, Q90L, F91L, D93S, Y94N, R96L, P100G
B14: IMPI-055 (antibody, V domains shown)
VH: QVQLVQSGAEVKKPGASVKVSCKASGYTFTSYDINWVRQATGQGLEWMGWMNPNSGNTGYAQKFQGRVTMTRDTSINTAYMELSSLRSEDTAVYFCARGGRYCSDVTCYSGEPFDYWGQGTLVTVSS
VL: EIMLTQSPDFQSVTPKEKVTITCRASQSIGSSLHWYQQKPDQSPKLLIKFASQSISGVPSRFSGSGSGTDFTLTINSLEAEDAAAYYCHQSSSLPHTFGPGTKVEIK
B15: IMPI-059 (antibody, V domains shown)
VH: EVQLVESGGGLIQPGGSLRLSCAASGFTVSSIYMSWVRQAPGKGLEWVSIIYSRGSTDYADSVKGRFTISRDISKNTLYLQMNSLRAEDTAVYYCARDGTMVRGVHAFDIWGQGTMVTVSS
VL: DIQMTQSPPSLSASIGDRVTITCQASQDISNYLNWYQQKPGKAPKLLIYDASNLETGVPSRFSGSGSGTDFTLTISNLQPEDIVTYYCQQYDNLPSSFGQGTKLEIK
B16: IMPI-042 (antibody, V domains shown)
VH: EVQLVESGGGLIQPGGSLRLSCAASGLTVSSNYMSWVRQAPGKGLEWVSIIYSGGSTYYADSVKGRFTISRDNSKNTLYLQMNSLRAEDTAVYYCARLGGYYYYGMDVWGQGTTVTVSS
VL: DIQMTQSPSSLSASVGERVTITCQASQDIRNYLNWYQKKPGKAPKLLIYDSSNLETGVPSRFSGGGSGTDFTFTISSLQPEDIATYYCQQYDNLPITFGQGTRLEIK
B17: IMPI-054 (antibody, V domains shown)
VH: B16 VH
VL: B16 VL with G65S
B18: IMPI-022 (antibody, V domains shown)
VH: EVQLVESGGGLVQPGRSLRLSCAASGFTFDDYAMHWVRQAPGKGLEWVSGITWNSGSIGYADSVKGRFTISRDNAKNSLYLHMNSLRVEDTALYYCAKDLQGDYYYYGVDVWGQGTTVTVSS
VL: AIQLTQSPSSLSASVGDRVTITCRASQGISSALAWYQQKPGKAPKLLLYDASSLVSGVPSRFSGSRSGTDFTLTISSLQPEDFATYYCQQFISYPLTFGGGTRVEIK
B19: IMPI-068 (antibody, V domains shown)
VH: QVQLVESGGDVVQPGRSLRLSCAASGFTFSRYGMHWVRQAPGKGLEWVAVISYDGSDKYYADSVKGRFTISRDNSKNTLYLQMNSLRAEDTAVYYCAKQLPLYYYYYGMDVWGQGTTVTVSS
VL: B18 VL with K45N, L48I, V55E, R66G, I92N, S93I, L96H, G100P, R103K, E105D
B20: IMPI-027 (antibody, V domains shown)
VH: QVQLQESGPGLVKPSQTLSLTCTVSGGSISSYGYYWNWIRQHPGKGLEWIGYIYYSGSTYYNPSLKSRVTISVDTSKNQLSLRLNSVSAADTAVYYCARDFGGNSNYFDYWGQGTLVTVSS
VL: B18 VL with A25T, L48I, V55E, R66G, I92N, R103K
B21: IMPI-024 (antibody, V domains shown)
VH: EVQLVQSGAEVKKPGESLKISCKGSGYSFTSYWIGWVRQMPGKGLEWMGIIYPGDSDTRYSPSFQGQVTISADKSISTAYLQWSSLKASDTAMYYCVRSYNWNYFDYWGQGTLVTVSS
VL: B18 VL with A32G, P40A, L48I, A51V, V55E, R66G, I92L, L96W, G100Q, R103K
B22: IMPI-033 (antibody, V domains shown)
VH: B20 VH with N37S, I71M
VL: B18 VL with K45N, L48I, V55E, R66G, I92N, Y94S, R103K
B23: IMPI-038 (antibody, V domains shown)
VH: QVQLVESGGGVVQPGRSLRLSCAASGFTFSSYGMHWVRQAPGKGLEWVAVISYDGSDKYYADSVKGRFTISRDNSKNTLYLQMNSLRAEDTAVYYCAKTVAGYYYYYYGMDVWGQGTTVTVSS
VL: DIQMTQSPSSVSASVGDRVTVTCRASQDISSWLAWFQQKPGKAPKFLIYDASNLENGVPSRFSGSGSGTDFTLTISSLQPEDFATYYCQQAKSFPWTFGQGTKVEIN
B24: IMPI-067 (antibody, V domains shown)
VH: B23 VH with R16T, S30N, Y32F, D57S, T99D, V100E, A101G, G102D, Y104D, Y105D
VL: EIVLTQSPGSLSLSPGERATLSCRASQSLSSRYLAWYHQKPGQAPRLLIYGASSRATGIPDRFSGSGSGTDFTLTISGLEPEDFAVYYCQQYGNSITFGGGTKVEIK

Assays:
[1] = target: SARS-CoV-2 spike protein receptor binding domain (RBD) (SARS-CoV-2, UniProt P0DTC2 319-541)
[2] = target: RBD domain of the spike protein of SARS-CoV-2 virus (Acro Biosystems SPD-C52H3) (SARS-CoV-2, UniProt P0DTC2 319-537)
[3] = target: SARS-CoV-2 spike protein N-terminal domain (NTD) (SARS-CoV-2, UniProt P0DTC2 14-305)
[4] = target: SARS-CoV-2 spike receptor binding domain (RBD), antigen of Example 10 (SARS-CoV-2, UniProt P0DTC2 319-541)
[5] = target: SARS-CoV-2 spike N-terminal domain (NTD), antigen of Example 10 (SARS-CoV-2, UniProt P0DTC2 14-305)
[6] = target: Receptor binding domain (Neil King, University of Washington) (SARS-CoV-2, UniProt P0DTC2 328-531)

Binder | Kd [1] [nM] | Kd [3] [nM] | further results
B1 | 191 | – | –
B2 | – | – | IC50 [2]: 7.76 nM
B3 | 24.9 | – | –
B4 | 22.3 | – | –
B5 | 2.25 | 1050 | –
B6 | – | – | Kd [4]: 1.59 nM; Kd [5]: 682 nM
B7 | – | – | Kd [4]: 141 nM
B8 | – | – | Kd [6]: < 1 nM
B9 | – | – | IC50 [2]: 4.85 nM
B10 | 0.446 | 219 | –
B11 | – | – | Kd [6]: < 1 nM
B12 | 14.7 | – | –
B13 | 6.65 | 2320 | –
B14 | – | – | Kd [4]: 1.85 nM; Kd [5]: 1360 nM
B15 | – | – | Kd [4]: 2.3 nM; Kd [5]: 1650 nM
B16 | 1.87 | 662 | –
B17 | – | – | Kd [4]: 2.06 nM; Kd [5]: 602 nM
B18 | – | 603 | –
B19 | – | – | Kd [4]: 9.47 nM; Kd [5]: 2570 nM
B20 | 6.31 | 2910 | –
B21 | 1.16 | 660 | –
B22 | 3.02 | 1820 | –
B23 | 0.826 | 475 | –
B24 | – | – | Kd [5]: 84.5 nM
